Experiments:
[1] = system: LPS + IFNγ‐stimulated primary human macrophages; test: In vitro photodynamic therapy, MTT viability, LPS + IFNγ-stimulated macrophages; format: cell-based; settings: 30 µM 1 h 37 °C, washed
Excerpt: (§1) We next coupled MACTIDE to the photosensitizer Verteporfin, intending to deplete CD206^+ TAM using photodynamic therapy (PDT). To this end, carboxy‐Verteporfin was coupled to the N‐terminus of MACTIDE, a construct referred to as “MACTIDE‐V” (Figure 5A). We performed in vitro photodynamic therapy with MACTIDE‐V on primary human macrophages stimulated with IL‐4 or LPS + IFNγ.
(§2) Figure 5 In vitro and in vivo photodynamic therapy with MACTIDE‐V. A) Structure of MACTIDE‐V. B) MACTIDE‐V, CtrlPep‐V, and DOX were incubated with primary human macrophages (obtained from monocytes derived from human blood buffy coat) at 30 µM for 1 h at 37 °C, followed by 2 washes with media. Then, the groups shown in pink were irradiated with 10 J cm^−2 (irradiance: 170 mW cm^−2, spot diameter: 0.5 cm). […] Peptide‐V conjugates were administered i.p. at a dose of 30 nmol (1 mg Kg^−1 in Verteporfin). For the irradiated groups, 4 h after administration of conjugates or PBS, the mice were irradiated with 100 J cm^−2; shown is primary tumor volume progression during treatment. Gray arrows indicate injection days. D) Bodyweight during the treatment as % of the initial one. E) Representative mIHC images of PBS, CtrlPep‐V, and MACTIDE‐V‐treated tumors, 20X magnification, scale bar = 100 µm, white triangles point to Foxp3^+ cells. F) CD8^+ T cells, CD4^+ T cells, and Treg density, n = 6 mice/group, with every dot representing the mean cell density of each tumor obtained from 20 images. G) CD8^+ T cells density in CK8^+‐dense tumor regions. n = 5 mice/group, with every dot representing the mean cell density of each tumor obtained from 20 images. Median ± interquartile range. One‐way ANOVA with multiple comparisons, ^* p ≤ 0.05, ^** p ≤ 0.01.
(§3) Human peripheral mononuclear cells (PBMCs) were purified from human blood buffy coats following the protocol described previously.^[ [24] ^] […] Crystal formation was monitored every 20–30 min to not oversaturate the absorbance values.

[2] = system: IL‐4‐stimulated primary human macrophages; test: In vitro photodynamic therapy, MTT viability, IL-4-stimulated macrophages; format: cell-based; settings: 30 µM 1 h 37 °C, washed
Excerpt: as §1, §2, §3

[3] = irradiated 10 J cm^−2 (689 nm), 48 h, n = 6
[4] = with or without 10 J cm^−2, 48 h

Vert‐Ahx‐G(CTKSIPPIC)SPGAK‐OH (disulfide) [MACTIDE‐V]
macrophages depleted, irradiated [1, 3]: 40%
toxicity, non‐irradiated ([1]; no irradiation, 48 h, n = 6): no toxicity
macrophages depleted, irradiated [2, 3]: 80%
toxicity, non‐irradiated ([2]; no irradiation, 48 h, n = 6): no toxicity

Vert‐Ahx‐AKPCGS‐OH [CtrlPep‐V, reference compound]
toxicity with and without irradiation [1, 4]: no toxicity
toxicity with and without irradiation [2, 4]: no toxicity
